Entries after “also recorded” stand apart in the source; their conditions may differ.
Key:
IgCD95L = IgCD95L (UniProt P48023); test: SPR
CD95L = CD95L (UniProt P48023); test: flow cytometry (1A12 cells)
[1] = target: T1, human CD95L expressed on cells (UniProt P48023 1-281); test: flow cytometry (1A12 cells)
T1 chain: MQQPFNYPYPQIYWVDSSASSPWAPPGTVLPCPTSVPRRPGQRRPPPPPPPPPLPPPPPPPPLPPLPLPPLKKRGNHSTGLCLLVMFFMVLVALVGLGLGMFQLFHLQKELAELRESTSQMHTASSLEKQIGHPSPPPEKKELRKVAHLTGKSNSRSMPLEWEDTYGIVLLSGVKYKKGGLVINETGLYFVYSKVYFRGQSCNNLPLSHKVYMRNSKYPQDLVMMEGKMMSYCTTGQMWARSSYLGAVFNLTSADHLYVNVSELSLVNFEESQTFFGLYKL

[2] = target: T2, human CD95L expressed on cells (human, UniProt P48023 1-281); test: flow cytometry on HEK/293T cells transiently transfected with CD95L, antibody at 1 µg/ml
T2 construct: also called FasL; FASL
T2 sequence: T1 chain
Experimental: (§1) FIG. 1. JQ3 recognizes human and simian CD95L and is a stronger neutralizing anti-CD95L mAb as compared to the commercial anti-CD95L antibody NOK-1. A. Kon, Koff and Kd of JQ3 (IgG1κ) and NOK-1 (IgG1κ) hybridoma measured by surface plasmon resonance. IgCD95L was immobilized on a sensor chip S CM5 and antibody binding features was evaluated using a Biacore T200. B. The ability of the anti-human CD95L monoclonal antibodies NOK-1 and JQ3 and anti-mouse CD95L monoclonal antibody MFL3 (1 μg/ml) to recognize human, simian or mouse CD95L was determined by flow cytometry using HEK/293T cells transiently transfected with indicated CD95L-encoding pcDNA3.1 vectors. C. The binding efficiency of NOK-1 and JQ3 was compared by flow cytometry against CD95L-expressing 1A12 cell line. Left panel: Histograms report the intensity of CD95L staining (CD95L mean of fluorescence—isotypic mean of fluorescence) according to the antibody concentration (M). Right panels: examples of CD95L staining, in red the JQ3 or NOK-1 staining and in grey the isotypic staining. Table indicates the half maximal effective concentration (EC50) for each antibody. D. The neutralizing ability of NOK1 and JQ3 mAbs was compared by incubating CD95-sensitive Jurkat cell line (5.10⁵ cells) for 24 hours with 100 ng/ml of Ig-CD95L (soluble and cytotoxic human CD95L) in the presence or absence of the indicated concentrations of antibody.

[3] = target: T3, Ig-CD95L (soluble and cytotoxic human CD95L) (UniProt P48023 103-281); test: SPR
T3 chain: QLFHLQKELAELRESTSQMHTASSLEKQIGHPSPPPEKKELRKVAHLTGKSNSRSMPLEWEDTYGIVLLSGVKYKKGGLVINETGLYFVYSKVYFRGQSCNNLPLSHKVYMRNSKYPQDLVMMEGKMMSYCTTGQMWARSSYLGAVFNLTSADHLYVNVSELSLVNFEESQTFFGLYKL

[4] = test system: Ig-CD95L (soluble and cytotoxic human CD95L); test: Neutralization of Ig-CD95L-induced cell death in Jurkat T-cells (MTT assay); type: cell-based; settings: 24 hours, 100 ng/ml Ig-CD95L, compared with NOK-1
Experimental: as §1, with “JQ3 recognizes human and simian CD95L and is a stronger neutralizing anti-CD95L mAb as compared to the commercial anti-CD95L antibody NOK-1.” left out, “D. The neutralizing ability of NOK1 and JQ3 mAbs was compared by incubating CD95-sensitive Jurkat cell line (5.10⁵ cells) for 24 hours with 100 ng/ml of Ig-CD95L (soluble and cytotoxic human CD95L) in the presence or absence of the indicated concentrations of antibody.” left out
Cell viability was assessed using MTT (3-(4,5-dimethylthiazol-2-yl)-2,5-diphenyltetrazolium bromide) assay as previously described (48). […] Then, MTT (15 μl at 5 mg/mL in PBS) was added, and after 4 h of incubation at 37° C., the absorbance was measured at 570 nm wavelength using the Infinite200Pro (Tecan, Männedorf, Switzerland).

[5] = test system: CD95-mediated Ca^2+ response in neutrophils; test: Calcium response (Cal-520 imaging) of healthy donor neutrophils stimulated with patient sera; type: cell-based, human; settings: sera from AAV or COVID-19 patients pre-incubated 30 min with antibody 10 μg/mL
human CD95L = target: T4, human CD95L (Homo sapiens, UniProt P48023); test: Flow cytometry recognition of CD95L on transiently transfected HEK/293T cells; type: cell-based; settings: antibody 1 μg/ml, HEK/293T cells transfected with CD95L-encoding pcDNA3.1 vector
T4 construct: expressed in transfected cells; host or cells: HEK/293T
T4 sequence (P48023 1-281): T1 chain
Experimental: as §1, with “JQ3 recognizes human and simian CD95L and is a stronger neutralizing anti-CD95L mAb as compared to the commercial anti-CD95L antibody NOK-1.” left out, “(5.10^5” for “(5.10⁵”

simian CD95L = test: as above; type: cell-based; settings: antibody 1 μg/ml, HEK/293T cells transfected with CD95L-encoding pcDNA3.1 vector
Experimental: as §1, with “JQ3 recognizes human and simian CD95L and is a stronger neutralizing anti-CD95L mAb as compared to the commercial anti-CD95L antibody NOK-1.” left out, “(5.10^5” for “(5.10⁵”

Molecule: NOK1
- Kd (IgCD95L): 5.3 nM

Molecule: NOK-1
- EC50 (CD95L): 353000 nM

B1: JQ3 neutralizing anti-CD95L monoclonal antibody (IgG1κ) (antibody, V domains shown)
VH: EIQLQQTGPELVKPGASVKISCKASGFSFTDYIMVWVKQSHGKILEWIGDISPYYGTATYNLKFKGKATLTVVKSSSTAYMQLNSLTSEDSAVYYCARAPNRYEVMDYWGQGTSVTVSS
VL: QIVFTQSPAIMSAFLGEEITLTCSASSSVSYMHWYQQKSGTSPKLLIYNTFNLASGVPSRFSGSGSGTFYSLTISSVEAEDAADYYCHQWSSYPTFGGGTKLEIK
notes: Mouse (Balb/c) hybridoma antibody, IgG1 kappa, purified on protein A; also called JQ3 mAb
- EC50 [1]: 5.53 nM
- binding result [2]: binds
- Kd [3]: 2.2 nM

B2: JQ3: neutralizing anti-CD95L monoclonal antibody (IgG1κ), mouse hybridoma; VL and VH domains given as sequences (antibody, V domains shown)
VH: B1 VH
VL: B1 VL
- neutralizing ability (inhibition of CD95-mediated apoptotic signaling pathway) [4]: stronger neutralizing anti-CD95L mAb as compared to the commercial anti-CD95L antibody NOK-1; also recorded: inhibited the CD95-mediated apoptotic signaling pathway induced in T-cell line Jurkat more efficiently than NOK-1 mAb
- inhibition of neutrophil activation (calcium response) [5]: inhibit neutrophil activation (calcium response); also recorded: blocked the CD95-mediated Ca^2+ response
- recognition of human CD95L (human CD95L): recognizes
- recognition of simian CD95L (simian CD95L): recognizes
